Data reported in the supplement of paper PMC10567573.

B1: MATN2 (parent)
chain: VNVPGSFVCQCYSGYALAEDGKRC

Variants of: B1
Assay: protein stability index of a GFP-peptide fusion (GPS, HEK-293T) (PSI 1-6); higher = more stable
Conditions: c terminus: a fixed tail appended
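Also: lentivirally expressed fusions sorted by FACS into six bins by GFP to DsRed ratio, PSI derived from sequencing read proportions per bin multiplied by bin number.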

| Variant | protein stability index |
| --- | --- |
| VNVPGSFVCQCYSGYALANDGKRC [E19N] | 2.79 |
| VNVPGSFVCQCYSGYALAHDGKRC [E19H] | 3.03 |
| VNVPGSFVCQCYSGYALARDGKRC [E19R] | 1.51 |
| VNVPGSFVCQCYSGYALADDGKRC [E19D] | 1.76 |
| VNVPGSFVCQCYSGYALAVDGKRC [E19V] | 2.29 |
| VNVPGSFVCQCYSGYALAEDGKAC [R23A] | 2.16 |
| VNVPGSFVCQCYSGYALAEDGKIC [R23I] | 1.67 |
| VNVPGSFVCQCYSGYALAEDGKDC [R23D] | 2.78 |
| VNVPGSFVCQCYSGYALAEDGKQC [R23Q] | 3.67 |
| VNVPGSFVCQCYSGYALAEDGKEC [R23E] | 2.78 |
| VNVPGSFVCQCYSGYALAEDGKCC [R23C] | 2.74 |
| VNVPGSFVCQCYSGYALAEDGKSC [R23S] | 2.35 |
| VNVPGSFVCQCYSGYALAEDGKLC [R23L] | 2.62 |
| VNVPGSFVCQCYSGYALAEDGKVC [R23V] | 2.41 |
| VNVPGSFVTQCYSGYALAEDGKRC [C9T] | 2.52 |
| VNVPGSFVYQCYSGYALAEDGKRC [C9Y] | 2.2 |
| VNVPGSFVQQCYSGYALAEDGKRC [C9Q] | 2.97 |
| VNVPGSFVDQCYSGYALAEDGKRC [C9D] | 4.36 |
| VNVPGSFVHQCYSGYALAEDGKRC [C9H] | 2.95 |
| VNVPGSFVGQCYSGYALAEDGKRC [C9G] | 2.8 |
| VNVPGSFVKQCYSGYALAEDGKRC [C9K] | 3.08 |
| VNVPGSFVFQCYSGYALAEDGKRC [C9F] | 2.54 |
| VNVPGSFVPQCYSGYALAEDGKRC [C9P] | 3.06 |
| VNVPQSFVCQCYSGYALAEDGKRC [G5Q] | 2.14 |

| Variant | protein stability index |
| --- | --- |
| VNVPLSFVCQCYSGYALAEDGKRC [G5L] | 1.06 |
| VNVPASFVCQCYSGYALAEDGKRC [G5A] | 1.67 |
| VNVPGSFVCQCYSGYALAEDGWRC [K22W] | 1.9 |
| VNVPGSFVCQCYSGYALAEDGGRC [K22G] | 2.43 |
| VNVPGSFVCQCYSGYALAEDGCRC [K22C] | 3.96 |
| VNVPGSFVCQCYSGYALAEDGHRC [K22H] | 2.68 |
| VNVPGSFVCQCYSGYALAEDGRRC [K22R] | 1.08 |
| VNVPGSFVCQCYSGYALAEDGPRC [K22P] | 2.08 |
| VNVPGSFVCQCYSGYALAEDGIRC [K22I] | 1.5 |
| VNVPGSFVCQCYSGYALAEDGSRC [K22S] | 1.7 |
| VNVPGSFVCQCYSGYALAEDGERC [K22E] | 2.03 |
| VNVPGSFVCQCYSGYALAEDGARC [K22A] | 2.6 |
| VNVPGSFCCQCYSGYALAEDGKRC [V8C] | 1.27 |
| VNVPGSFTCQCYSGYALAEDGKRC [V8T] | 1.96 |
| VNVPGSFMCQCYSGYALAEDGKRC [V8M] | 2.79 |
| VNVPGSFYCQCYSGYALAEDGKRC [V8Y] | 3.01 |
| VNVPGSFLCQCYSGYALAEDGKRC [V8L] | 2.35 |
| VNVPGSFQCQCYSGYALAEDGKRC [V8Q] | 2.51 |
| VNVPGSFNCQCYSGYALAEDGKRC [V8N] | 2.51 |
| VNVPGSFKCQCYSGYALAEDGKRC [V8K] | 2.74 |
| VNVPGSFFCQCYSGYALAEDGKRC [V8F] | 1.79 |
| VNVPGSFHCQCYSGYALAEDGKRC [V8H] | 2.34 |
| VNVPGSFGCQCYSGYALAEDGKRC [V8G] | 1.92 |
| VNVPGSFVCQCYSGYACAEDGKRC [L17C] | 3.36 |

| Variant | protein stability index |
| --- | --- |
| VNVPGSFVCQCYSGYAEAEDGKRC [L17E] | 2.58 |
| VNVPGSFVCQCYSGYAAAEDGKRC [L17A] | 2.85 |
| VNVPGSFVCQCYSGYATAEDGKRC [L17T] | 1.75 |
| VNVPGSFVCQCYSGYAKAEDGKRC [L17K] | 1.81 |
| VNVPGSFVCQCYSGYAPAEDGKRC [L17P] | 2.46 |
| VNVPGSFVCQCYSGYAMAEDGKRC [L17M] | 1.81 |
| VNVPGSFVCQCYSGYAHAEDGKRC [L17H] | 2.27 |
| VNVPGSFVCQCYSGYAYAEDGKRC [L17Y] | 2.44 |
| QNVPGSFVCQCYSGYALAEDGKRC [V1Q] | 2.01 |
| DNVPGSFVCQCYSGYALAEDGKRC [V1D] | 2.6 |
| HNVPGSFVCQCYSGYALAEDGKRC [V1H] | 1.96 |
| CNVPGSFVCQCYSGYALAEDGKRC [V1C] | 2.15 |
| ANVPGSFVCQCYSGYALAEDGKRC [V1A] | 2.14 |
| YNVPGSFVCQCYSGYALAEDGKRC [V1Y] | 2.85 |
| GNVPGSFVCQCYSGYALAEDGKRC [V1G] | 2.6 |
| WNVPGSFVCQCYSGYALAEDGKRC [V1W] | 2.91 |
| TNVPGSFVCQCYSGYALAEDGKRC [V1T] | 2.36 |
| VNVPGSFVCQCYSGYYLAEDGKRC [A16Y] | 1.1 |
| VNVPGSFVCQCYSGYMLAEDGKRC [A16M] | 1.79 |
| VNVPGSFVCQCYSGYFLAEDGKRC [A16F] | 2.42 |
| VNVPGSFVCQCYSGYHLAEDGKRC [A16H] | 2.77 |
| VNVPGSFVCQCYSGYKLAEDGKRC [A16K] | 1.91 |
| VNVPGSFVCQCYSGYCLAEDGKRC [A16C] | 3.35 |
| VNVPGSFVCQCYSGYQLAEDGKRC [A16Q] | 1.97 |

| Variant | protein stability index |
| --- | --- |
| VNVPGSFVCQCASGYALAEDGKRC [Y12A] | 2.73 |
| VNVPGSFVCQCPSGYALAEDGKRC [Y12P] | 3.02 |
| VNVPGSFVCQCTSGYALAEDGKRC [Y12T] | 2.95 |
| VNVPGSFVCQCRSGYALAEDGKRC [Y12R] | 2 |
| VNVPGSFVCQCCSGYALAEDGKRC [Y12C] | 2.87 |
| VNVPGSFVCQCHSGYALAEDGKRC [Y12H] | 2.24 |
| VNVPGSFVCQCESGYALAEDGKRC [Y12E] | 3.47 |
| VNVPGSFVCQCLSGYALAEDGKRC [Y12L] | 2.21 |
| VNVDGSFVCQCYSGYALAEDGKRC [P4D] | 1.91 |
| VNVEGSFVCQCYSGYALAEDGKRC [P4E] | 2.46 |
| VNVNGSFVCQCYSGYALAEDGKRC [P4N] | 1.94 |
| VNVFGSFVCQCYSGYALAEDGKRC [P4F] | 1.36 |
| VNVVGSFVCQCYSGYALAEDGKRC [P4V] | 2.28 |
| VNVHGSFVCQCYSGYALAEDGKRC [P4H] | 1.47 |
| VNVTGSFVCQCYSGYALAEDGKRC [P4T] | 1 |
| VNPPGSFVCQCYSGYALAEDGKRC [V3P] | 2.08 |
| VNSPGSFVCQCYSGYALAEDGKRC [V3S] | 2.16 |
| VNTPGSFVCQCYSGYALAEDGKRC [V3T] | 2.39 |
| VNYPGSFVCQCYSGYALAEDGKRC [V3Y] | 2.52 |
| VNKPGSFVCQCYSGYALAEDGKRC [V3K] | 2.82 |
| VNCPGSFVCQCYSGYALAEDGKRC [V3C] | 1.08 |
| VNIPGSFVCQCYSGYALAEDGKRC [V3I] | 1.23 |
